Key:
[1] = test system: hHBV; assay: Bio-layer interferometry: immobilized Fc-lectin and hHBV; format: binding, hepatitis B virus; conditions: hHBV, BLI, same condition as Siglec-3
Source text: HBV was purified from blood samples of chronic hepatitis B (CHB) patients and HBV-transgenic mice, respectively. The protocol for HBV was purified by conventional method. HBV viral load was determinate by RT-PCR according to a standard HBV plasmid. HBsAg level was quantified by the HBsAg ELISA kit.
Sialidase S and sialidase C were used to remove sialoglycan from HBV or sialoglycans, respectively. Sialidase S releases only α(2-3)-linked Neu5Ac, while Sialidase C release both α(2-3) and α(2-6)-linked Neu5Ac. The sialidase-treated substrates were used for HBV-Siglec-3 binding assay and competition assay.
The interaction between human Siglec.Fc fusion protein and HBV was determined by the Bio-layer interferometry. […] The valence between HBV and human Siglec-3 was determined, which correlates the strength of multivalent association with that of monovalent association as shown in the following: • KA, surf=F (S×10^−2)^n−1×(KA, mono)^n, where KA, surf is thereciprocal of KD (HBV and Siglec-3), KA, mono is the reciprocal of KD (Biantennary a2-6 linked sialylglycopeptide and Siglec-3); n is the number of valency number; F is the statistic factor in the system and S is equal to 40(Å), which is estimated according to crystal structure of Siglec-3 published on RCSB protein data bank (Number: 5J0B). […]

[2] = test system: hHBV; assay: Immunoprecipitation of hHBV by Siglec ECD.Fc fusion proteins; format: binding, hepatitis B virus; conditions: Western blot with anti-HBs
Method: HBV ([…]) was incubated with recombinant Siglec-3/-7/-9 ECD.Fc fusion proteins, respectively, for 16 hours at 4° C., followed by incubation with Sepharose-conjugated Protein A beads for immunoprecipitation. The samples were fractionated on 12% SDS-PAGE before blotting to PVDF membrane and incubated in blocking buffer (0.05% Tween 20 in TBS containing 5% BSA) at 4° C. overnight. Blots were incubated with […] polyclonal goat-anti-HBs Ab for 1 hour at room temperature, followed by incubation with Streptavidin-HRP (1:10000 dilution) for another 1 hour at room temperature, and were visualized by ECL.

B1: Siglec-7: recombinant human Siglec-7 extracellular domain (ECD).Fc fusion protein (protein)
chain: QKSNRKDYSLTMQSSVTVQEGMCVHVRCSFSYPVDSQTDSDPVHGYWFRAGNDISWKAPVATNNPAWAVQEETRDRFHLLGDPQTKNCTLSIRDARMSDAGRYFFRMEKGNIKWNYKYDQLSVNVTALTHRPNILIPGTLESGCFQNLTCSVPWACEQGTPPMISWMGTSVSPLHPSTTRSSVLTLIPQPQHHGTSLTCQVTLPGAGVTTNRTIQLNVSYPPQNLTVTVFQGEGTASTALGNSSSLSVLEGQSLRLVCAVDSNPPARLSWTWRSLTLYPSQPSNPLVLELQVHLGDEGEFTCRAQNSLGSQHVSLNLSLQQEYTGKMRPVSGVLLGAVGGAGATALVFLSFCVIFIVVRSCRKKSARPAADVGDIGMKDANTIRGSASQGNLTESWADDNPRHHGLAAHSSGEEREIQYAPLSFHKGEPQDLSGQEATNNEYSEIKIPK
- binding to hHBV [1]: did not bind
- pull down of hHBV HBsAg (immunoprecipitation) [2]: cannot pull down

From patent US12103969B2, “Anti-Siglec antibody, pharmaceutical composition comprising the same, and uses thereof” (Academia Sinica, priority 2018, dated 2024)
